Biological target: T1, FOXA2 (immunoprecipitated from control NCI-H292 cells) (Homo sapiens? (NCI-H292 cells), UniProt Q9Y261 1-457)
T1 sequence: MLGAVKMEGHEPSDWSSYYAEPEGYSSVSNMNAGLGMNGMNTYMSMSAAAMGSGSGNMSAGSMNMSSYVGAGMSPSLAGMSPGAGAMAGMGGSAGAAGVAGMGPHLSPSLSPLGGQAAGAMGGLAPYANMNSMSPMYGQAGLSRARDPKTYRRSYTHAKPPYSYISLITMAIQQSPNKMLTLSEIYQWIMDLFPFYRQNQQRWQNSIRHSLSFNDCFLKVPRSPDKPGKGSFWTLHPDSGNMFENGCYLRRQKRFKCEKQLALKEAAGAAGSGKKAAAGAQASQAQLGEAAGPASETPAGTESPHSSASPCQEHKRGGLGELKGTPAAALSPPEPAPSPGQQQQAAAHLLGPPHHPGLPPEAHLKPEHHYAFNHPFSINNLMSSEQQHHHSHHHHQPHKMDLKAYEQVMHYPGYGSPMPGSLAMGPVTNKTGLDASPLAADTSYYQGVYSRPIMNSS
Test: EMSA; untreated control cells; inhibited by 20-fold unlabeled probe and by anti-FOXA2 antibody; 10 mM Hepes pH 7.9, 1 mM EDTA, 5 mM MgCl2, 10% glycerol, DTT (printed '0.5 m MDTT', probably 0.5 mM), 1 mg/ml BSA, 1 ug poly(dI-dC); 2.5 ug FOXA2; 20 min, room
Conditions: protein: native; blunt

B1: MUC5B promoter FOXA2 site probe (dsDNA)
DNA 1: CCTCCCCGAGAGCAAACACACGTGGCTGGA
DNA 2: TCCAGCCACGTGTGTTTGCTCTCGGGGAGG
Q: Does B1 bind?
A: binds

Reference: article PMC3765780, “Pyocyanin-induced mucin production is associated with redox modification of FOXA2”
